2 substances from PMC6262836 can be followed below.

Common to all, as to experiment: SPR
A general note: SPR reads the build-up and loss of mass on a sensor chip optically.

For test [1], the target named is Recombinant human VEGFR-1 Fc chimera (human) (UniProt P17948).
Test [2] deals with Recombinant human VEGFR-2 Fc chimera (human) (UniProt P35968).
For test [3] the target is unchanged. This is another data set of the same source.
Test [4] addresses Recombinant human VEGFR-1 Fc chimera (human) (UniProt P17948). The source holds these as a separate data set.
For test [5], the target named is Recombinant human VEGFR-2 Fc chimera (human) (UniProt P35968). The source holds these as a separate data set.
Test [6] concerns the target Recombinant human VEGFR-1 Fc chimera (human) (UniProt P17948). The source holds these as a separate data set.
The target in test [7] is Recombinant human VEGFR-2 Fc chimera (human) (UniProt P35968). This is another data set of the same source.
The target of test [8] is Recombinant mouse neuropilin-1 (NRP-1 monomer) (mouse) (UniProt P97333).
The target is the same in test [9]. This is another data set of the same source.

Values joined by “and” are separate entries in the source; they are usually repeats but may differ in a detail not shown here. Identical values can stand only once. Like-named read-outs stand apart in the source and are kept apart here.

Chain of UniProt P97333 (P97333 22-856): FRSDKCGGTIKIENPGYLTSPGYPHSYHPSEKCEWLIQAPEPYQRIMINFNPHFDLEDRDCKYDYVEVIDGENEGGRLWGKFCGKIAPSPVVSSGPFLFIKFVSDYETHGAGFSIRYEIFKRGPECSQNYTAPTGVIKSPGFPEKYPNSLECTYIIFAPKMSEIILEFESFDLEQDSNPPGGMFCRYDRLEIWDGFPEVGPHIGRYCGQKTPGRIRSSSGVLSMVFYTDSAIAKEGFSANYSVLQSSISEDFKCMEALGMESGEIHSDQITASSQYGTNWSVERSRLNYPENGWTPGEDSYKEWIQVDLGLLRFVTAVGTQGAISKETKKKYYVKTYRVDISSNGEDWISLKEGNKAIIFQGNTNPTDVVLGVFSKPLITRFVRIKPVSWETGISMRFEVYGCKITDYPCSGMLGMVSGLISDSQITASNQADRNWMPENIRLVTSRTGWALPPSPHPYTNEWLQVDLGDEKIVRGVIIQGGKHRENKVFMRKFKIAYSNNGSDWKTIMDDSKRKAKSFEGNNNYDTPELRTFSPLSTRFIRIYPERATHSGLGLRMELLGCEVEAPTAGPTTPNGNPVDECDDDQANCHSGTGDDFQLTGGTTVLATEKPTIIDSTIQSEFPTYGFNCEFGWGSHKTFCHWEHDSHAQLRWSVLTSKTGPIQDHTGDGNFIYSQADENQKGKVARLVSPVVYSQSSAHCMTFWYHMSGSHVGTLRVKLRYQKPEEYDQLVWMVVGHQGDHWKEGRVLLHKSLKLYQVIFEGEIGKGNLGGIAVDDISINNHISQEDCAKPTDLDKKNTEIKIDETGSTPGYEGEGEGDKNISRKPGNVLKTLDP
Chain of UniProt P35968 (P35968 20-764, change not shown): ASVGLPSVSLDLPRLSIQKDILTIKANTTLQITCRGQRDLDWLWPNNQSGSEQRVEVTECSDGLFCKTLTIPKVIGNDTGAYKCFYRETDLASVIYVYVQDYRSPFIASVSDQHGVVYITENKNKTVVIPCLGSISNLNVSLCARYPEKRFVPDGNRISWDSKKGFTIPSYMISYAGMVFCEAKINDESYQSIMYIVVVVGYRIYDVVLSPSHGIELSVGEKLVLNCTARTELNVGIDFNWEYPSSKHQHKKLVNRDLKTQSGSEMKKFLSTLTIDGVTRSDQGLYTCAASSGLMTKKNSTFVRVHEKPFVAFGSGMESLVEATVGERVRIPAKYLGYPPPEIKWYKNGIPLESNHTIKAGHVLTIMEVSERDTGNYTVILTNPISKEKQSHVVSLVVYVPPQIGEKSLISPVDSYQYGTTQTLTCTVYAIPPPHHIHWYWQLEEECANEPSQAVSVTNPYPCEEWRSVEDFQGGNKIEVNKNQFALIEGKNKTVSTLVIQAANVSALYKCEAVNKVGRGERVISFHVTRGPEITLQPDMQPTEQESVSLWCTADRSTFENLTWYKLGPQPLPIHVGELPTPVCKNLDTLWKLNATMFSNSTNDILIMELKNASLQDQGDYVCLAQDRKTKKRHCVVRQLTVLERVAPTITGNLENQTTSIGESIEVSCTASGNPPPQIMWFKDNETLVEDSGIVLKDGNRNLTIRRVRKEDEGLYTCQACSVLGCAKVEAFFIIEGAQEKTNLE
Chain of UniProt P17948 (P17948 27-758, change not shown): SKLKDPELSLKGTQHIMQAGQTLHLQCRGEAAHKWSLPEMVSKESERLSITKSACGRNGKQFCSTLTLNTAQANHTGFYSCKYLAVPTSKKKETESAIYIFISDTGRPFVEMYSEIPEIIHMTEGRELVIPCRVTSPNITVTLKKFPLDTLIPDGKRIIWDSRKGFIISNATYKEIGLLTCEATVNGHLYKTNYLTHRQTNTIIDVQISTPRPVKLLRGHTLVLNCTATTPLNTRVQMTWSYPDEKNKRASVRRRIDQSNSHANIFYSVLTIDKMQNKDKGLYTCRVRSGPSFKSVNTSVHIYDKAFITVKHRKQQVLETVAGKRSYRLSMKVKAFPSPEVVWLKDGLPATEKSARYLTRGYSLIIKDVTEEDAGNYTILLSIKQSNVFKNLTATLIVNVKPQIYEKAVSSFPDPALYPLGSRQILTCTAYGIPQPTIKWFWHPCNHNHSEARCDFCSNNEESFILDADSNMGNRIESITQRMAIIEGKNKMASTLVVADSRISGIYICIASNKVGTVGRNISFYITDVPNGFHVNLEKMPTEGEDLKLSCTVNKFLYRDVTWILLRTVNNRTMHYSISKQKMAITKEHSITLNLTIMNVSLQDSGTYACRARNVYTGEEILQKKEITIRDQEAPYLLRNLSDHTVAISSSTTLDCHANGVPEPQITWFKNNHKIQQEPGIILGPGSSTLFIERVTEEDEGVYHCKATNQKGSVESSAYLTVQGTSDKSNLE

In the case of Recombinant human VEGF121 (ligand), the Kd (as a rule, a measure of binding affinity in units of concentration) is 7.2 nM in [1], 17 nM in [2], 6.2 nM in test [4] and 5.5 nM in [5]. Besides, the kon (commonly the rate constant with which the complex forms) in [3] was 547000 M⁻¹ s⁻¹; in test [4], 1.43e+06 M⁻¹ s⁻¹; in [5], 5.47e+06 M⁻¹ s⁻¹. For the same substance, the koff (usually a measure of how fast the partners let go of each other) in test [4] was 0.0088 s⁻¹.

Take Recombinant human VEGF165 (ligand): the Kd in [6] was found to be 3.7 nM; in test [7] it was 18 nM; in [8], 28 nM; in [4], 0.196 nM; in test [5], 8.6 nM; in [9], 25 nM. The koff was 0.000569 s⁻¹ and 0.000592 s⁻¹ in test [4]; 0.0151 s⁻¹ in [5]; 0.065 s⁻¹ in [9]. For the same substance, the values for the kon in test [4], in test [5] and in [9] were 2.91e+06 M⁻¹ s⁻¹, 1.76e+06 M⁻¹ s⁻¹ and 2.64e+06 M⁻¹ s⁻¹, respectively.
